Assay results: patent US8030043B2, “β-galactoside-α2,3-sialyltransferase, a gene encoding thereof, and a method for producing thereof” (Japan Tobacco Inc., priority 2005, dated 2011)

B1: ISH467-N2C0 third clone: JT-ISH-467 sialyltransferase lacking signal peptide region, nucleotides 73 to 1230 of SEQ ID NO: 1, no mutation (protein, listed as Photobacterium phosphoreum)
chain: MFVFCKKIFFLIFISLMILGGCNSDSKHNNSDGNITKNKTIEVYVDRATLPTIQQMTQIINENSNNKKLISWSRYPINDETLLESINGSFFKNRPELIKSLDSMILTNEIKKVIINGNTLWAVDVVNIIKSIEALGKKTEIELNFYDDGSAEYVRLYDFSRLPESEQEYKISLSKDNIQSSINGTQPFDNSIENIYGFSQLYPTTYHMLRADIFETNLPLTSLKRVISNNIKQMKWDYFTTFNSQQKNKFYNFTGFNPEKIKEQYKASPHENFIFIGTNSGTATAEQQIDILTEAKKPDSPIITNSIQGLDLFFKGHPSATYNQQIIDAHNMIEIYNKIPFEALIMTDALPDAVGGMGSSVFFSLPNTVENKFIFYKSDTDIENNALIQVMIELNIVNRNDVKLISDLQ
modifications: CDS (1)..(1230) /gene=“467-23ST” /product=“Beta-galactoside- alpha 2,3-sialyltransferase”
B2: ISH224-N1C0 first clone: JT-ISH-224 sialyltransferase lacking signal peptide region, nucleotides 73 to 1230 of SEQ ID NO: 28 (protein, listed as Photobacterium sp.)
chain: MLVFCKKMFFSVFISLMILGGCNSDSNHNNSDGNITKNKTIEVYVDRATLPTIQQMTQIINENSNNKKLISWSRYPINDEELLESINGSFFKNNSELIKSLDSMILTNDIKKVIINGNTLWAADVVNIIKSIEAFGKKTEIELNFYDDGSAEYVRLYDFSKLPESEQEYKISLSKDNILSSINGTQPFENVVENIYGFSQLYPTTYHMLRADIFETNLPLRSLKGVLSNNIKQMKWDYFKTFNSQQKDKFYNFTGFNPDEIMEQYKASPNKNFIFVGTNSGTATAEQQIDILTEAKNPNSPIITKSIQGFDLFFKGHPSATYNKQIIDAHNMIEIYNKIPFEALIMTDALPDAVGGMGSSVFFSLPNTVENKFIFYKSDTDIENNALIQVMIELNIVNRNDVKLISDLQ
modifications: CDS (1)..(1230) /gene=“224-23ST” /product=“Beta-galactoside-alpha-2,3-sialyltransferase”
B3: FAJ-N1C0 first clone: JT-FAJ-16 sialyltransferase lacking signal peptide region, nucleotides 67 to 1209 of SEQ ID NO: 30 (protein, listed as Vibrio sp.)
chain: MKNIITKRMLIILSSLFTIIGCNNDNSTTTNNNAIEIYVDRATLPTIQQMTKIVSQKTSNKKLISWSRYPITDKSLLKKINAEFFKEQFELTESLKNIILSENIDNLIIHGNTLWSIDVVDIIKEVNLLGKNIPIELHFYDDGSAEYVRIYEFSKLPESEQKYKTSLSKNNIKFSIDGTDSFKNTIENIYGFSQLYPTTYHMLRADIFDTTLKINPLRELLSNNIKQMKWDYFKDFNYKQKDIFYSLTNFNPKEIQEDFNKNSNKNFIFIGSNSATATAEEQINIISEAKKENSSIITNSISDYDLFFKGHPSATFNEQIINAHDMIEINNKIPFEALIMTGILPDAVGGMGSSVFFSIPKEVKNKFVFYKSGTDIENNSLIQVMLKLNLINRDNIKLISDI
modifications: CDS (1)..(1209) /gene=“FAJ16-23ST” /product=“Beta-galactoside- alpha 2,3-sialyltransferase”

Tests used:
Assay type in all cases: biochemical
[1] = Optimum temperature for enzyme activity; settings: 5° C. to 45° C. at 5° C. intervals, at the optimum pH of each enzyme
Procedure: (§1) Purified enzymes were prepared to examine the optimum pH and temperature for β-galactoside-α2,3-sialyltransferase produced by the strain JT-ISH-467 as well as recombinant β-galactoside-α2,3-sialyltransferases produced by the third clone of ISH467-N2C0, the first clone of ISH224-N1C0 and the first clone of FAJ-N1C0.
The enzyme activity was measured at an interval of 5° C. starting from 5° C. up to 45° C. and at pH 5.0 for β-galactoside-α2,3-sialyltransferase produced by the strain JT-ISH-467, in cacodylate buffer (pH 5.5) for the third clone of ISH467-N2C0, in cacodylate buffer (pH 5.0) for the first clone of ISH224-N1C0, and in cacodylate buffer (pH 5.5) for the first clone of FAJ-N1C0.
As a result, as shown, in FIGS. 4-1 and 4-2, the enzyme activity was maximum at 25° C. for β-galactoside-α2,3-sialyltransferase produced by the strain JT-ISH-467, at 25° C. for the third clone of ISH467-N2C0, at 30° C. for the first clone of ISH224-N1C0, and at 20° C. for the first clone of FAJ-N1C0. […] It should be noted that enzyme activity at each temperature was expressed as relative activity, assuming at that the enzyme activity at a temperature where it reached a maximum was set to 100.

[2] = Optimum pH for enzyme activity; settings: 25° C.; acetate, cacodylate, phosphate, TAPS, CHES, CAPS buffers pH 4.0-11.0
Procedure: as §1
Acetate buffer (pH 4.0, pH 4.5 and pH 5.0), cacodylate buffer (pH 5.0, pH 5.5, pH 6.0, pH 6.5 and pH 7.0), phosphate buffer (pH 7.0, pH 7.5 and pH 8.0), TAPS buffer (pH 8.0, pH 8.5 and pH 9.0), CHES buffer (pH 9.0, pH 9.5 and pH 10.0) and CAPS buffer (pH 10.0, pH 10.5 and pH 11.0) were prepared and used for enzyme activity measurement at 25° C. at various pH values.
As a result, as shown in FIGS. 3-1 and 3-2, the enzyme activity was maximum at pH 5.0 for β-galactoside-α2,3-sialyltransferase produced by the strain JT-ISH-467, at pH 5.5 for the third clone of ISH467-N2C0, at pH 5.0 for the first clone of ISH224-N1C0, and at pH 5.5 for the first clone of FAJ-N1C0. […] It should be noted that enzyme activity at each pH was expressed as relative activity, assuming that the enzyme activity at pH where it reached a maximum was set to 100.

[3] = Confirmation of α2,3 sialyltransferase activity of E. coli-expressed enzyme with pyridylaminated lactose, HPLC; settings: pyridylaminated lactose 2.0 μM, CMP-sialic acid 5.7 μM, pH 6.0, 25° C., 6 hours
Procedure: Using the enzyme obtained in Example 2, the enzymatic reaction was carried out using a pyridylaminated sugar chain as a glycosyl acceptor substrate. The pyridylaminated sugar chain used for analysis was pyridylaminated lactose (Galβ1-4Glc-PA, Takara Bio Inc., Japan). The glycosyl acceptor substrate, CMP-NeuAc and the enzyme were dissolved at 2.0 μM, 5.7 μM and 20 mU/ml, respectively, in 25 μl of 20 mM cacodylate buffer (pH 6.0), and then reacted at 25° C. for 3 hours. After the reaction, the reaction solution was treated at 100° C. for 2 minutes to inactivate the enzyme, followed by HPLC to analyze the reaction product.
The HPLC system used was Shimadzu LC10A (Shimadzu Corporation, Japan) and the analytical column used was Takara PALPAK Type R (Takara Bio Inc., Japan). The column which had been equilibrated with 100 mM acetate-triethylamine (pH 5.0) containing 0.15% N-butanol was injected with the reaction solution diluted with Eluent A (100 mM acetate-triethylamine, pH 5.0). For elution of the pyridylaminated sugar chain, Eluent A (100 mM acetate-triethylamine, pH 5.0) and Eluent B (100 mM acetate-triethylamine containing 0.5% n-butanol, pH 5.0) were used to successively elute the pyridylaminated sugar chain with a linear gradient of 30% to 100% Eluent B (0 to 35 minutes) and then 100% Eluent B (35 to 50 minutes). The analysis was performed under the following conditions: flow rate: 1 ml/min, column temperature: 40° C., detection: fluorescence (Ex: 320 nm, Em: 400 nm).
As in the case of Example 3, pyridylaminated lactose (Galβ1-4Glc-PA, PA-Sugar Chain 026, Takara Bio Inc., Japan) was used as a glycosyl acceptor to carry out the enzymatic reaction. After the reaction, the reaction solution was heated at 95° C. for 5 minutes to inactivate the enzyme, followed by HPLC analysis. It should be noted that the enzymatic reaction was accomplished at 25° C. for 6 hours using pyridylaminated lactose and CMP-sialic acid dissolved at 2.0 μM and 5.7 μM, respectively, in 25 μl of 20 mM cacodylate buffer (pH 6.0) (Reaction 1). On the other hand, a control experiment (Reaction 2) was carried out using a reaction solution free from CMP-sialic acid. Further, to clarify the retention time of standards, the crude enzyme solution was inactivated by thermal treatment (95° C., 5 minutes) and tested in the presence of pyridylaminated lactose and pyridylaminated α2,3-sialyllactose (pyridylaminated 3′-sialyllactose) (Neu5Acα2-3Galβ1-4Glc-PA, PA-Sugar Chain 029, Takara Bio Inc., Japan).

| Molecule | Temperature at which the enzyme activity was maximum (optimum temperature) [1] [°C] | pH at which the enzyme activity was maximum (optimum pH) [2] | α2,3 sialyltransferase activity (formation of pyridylaminated α2,3-sialyllactose) [3] |
| --- | --- | --- | --- |
| B1 | 25 | 5.5 | found to have α2,3 sialyltransferase activity |
| B2 | 30 | 5.0 | a peak of pyridylaminated α2,3-sialyllactose (pyridylaminated 3′-sialyllactose) was detected |
| B3 | 20 | 5.5 | a peak of pyridylaminated α2,3-sialyllactose (pyridylaminated 3′-sialyllactose) was detected |
